Experimental findings from the supplement of paper PMC10567573 are described below.

B1: SNAP91 (parent)
chain: FATASAAVPVSTSKPSSDLLDLQP
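Note: lentivirally expressed fusions sorted by FACS into six bins by GFP to DsRed ratio, PSI derived from sequencing read proportions per bin multiplied by bin number.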

In the series the parent is B1. Briefly: protein stability index of a GFP-peptide fusion (GPS, HEK-293T) (PSI 1-6); higher = more stable. To be noted: c terminus: a fixed tail appended.
In the case of FATASAAVPVSTSKPSSDVLDLQP [L19V], the protein stability index came to 3.95. Next, FATASAAVPVSTSKPSSDHLDLQP [L19H]: 4.26; FATASAAVPVSTSKPSSDNLDLQP [L19N]: 4.32; FATASAAVPVSTSKPSSDQLDLQP [L19Q]: 3.96. The result for FATASAAVPVSTSKPSSDGLDLQP [L19G] reads 4.12; that for FATASAAVPVSTSKPSSDELDLQP [L19E], 4.59. In the case of FATASAAVPVSTSKPSSDFLDLQP [L19F], the protein stability index stood at 3.7. With FATASAAVPVSTSKPSSDWLDLQP [L19W], the protein stability index was 2.5. With FATASAAVPVSTSKPSSDDLDLQP [L19D], the protein stability index was determined as 4.64. The result for FATASAAVPVSTSKPSSDILDLQP [L19I] reads 3.95. Next, FATASAAVPVSTSKDSSDLLDLQP [P15D]: 4.17. Next, FATASAAVPVSTSKQSSDLLDLQP [P15Q]: 3.44; FATASAAVPVSTSKASSDLLDLQP [P15A]: 3.28. In the case of FATASAAVPVSTSKSSSDLLDLQP [P15S], the protein stability index worked out at 3.73. As to FATASAAVPVSTSKISSDLLDLQP [P15I], the protein stability index was found to be 3.52. Next, FATASAAVPVSTSKTSSDLLDLQP [P15T]: 3.74. As for FATASAAVPVSTSKFSSDLLDLQP [P15F], the protein stability index is 2.54.

Consider FATASAAVPVSTSKKSSDLLDLQP [P15K], for which the protein stability index turned out to be 3.57. Next, FATASAAVPVSTSKHSSDLLDLQP [P15H]: 3.96; FATASAAVPVSTSKMSSDLLDLQP [P15M]: 3.17; FATASAAVPVSTSKGSSDLLDLQP [P15G]: 3.97. FATASAAVPVSTSKNSSDLLDLQP [P15N]: the protein stability index stood at 3.85. Turning to FATASAAVPVSTSKVSSDLLDLQP [P15V], the protein stability index worked out at 3.14. As to FATASAAVPVSTSKLSSDLLDLQP [P15L], the protein stability index is 2.72.

As to FATASAAVPVSTSKESSDLLDLQP [P15E], the protein stability index amounted to 4.89. Next, FATASAAVPVSTSKYSSDLLDLQP [P15Y]: 2.99; FATASAAVPVSTSKRSSDLLDLQP [P15R]: 2.9; FATASAAVPVSTSKWSSDLLDLQP [P15W]: 2.19. Next, FATASAAVPVSTSKCSSDLLDLQP [P15C]: 3.15.

As for FATASAAVPVSTSKPSSDLLDLIP [Q23I], the protein stability index was determined as 2.92. The result for FATASAAVPVSTSKPSSDLLDLAP [Q23A] reads 3.5; that for FATASAAVPVSTSKPSSDLLDLGP [Q23G], 3.79. Next, FATASAAVPVSTSKPSSDLLDLDP [Q23D]: 3.97; FATASAAVPVSTSKPSSDLLDLFP [Q23F]: 2.7; FATASAAVPVSTSKPSSDLLDLCP [Q23C]: 3.61. The result for FATASAAVPVSTSKPSSDLLDLHP [Q23H] reads 3.35; that for FATASAAVPVSTSKPSSDLLDLEP [Q23E], 4.46.

Take FATASAAVPVSTSLPSSDLLDLQP [K14L]: the protein stability index came to 3.64. Next, FATASAAVPVSTSFPSSDLLDLQP [K14F]: 2.6. Consider FATASAAVPVSTSHPSSDLLDLQP [K14H], for which the protein stability index is 3.58. The result for FATASAAVPVSTSPPSSDLLDLQP [K14P] reads 4.15. For the variant FATASAAVPVSTSMPSSDLLDLQP [K14M], the protein stability index worked out at 3.48. Next, FATASAAVPVSTSAPSSDLLDLQP [K14A]: 4.16. The result for FATASAAVPVSTSEPSSDLLDLQP [K14E] reads 4.45; that for FATASAAVPVSTSCPSSDLLDLQP [K14C], 3.61. Next, FATASAAVPVSTSNPSSDLLDLQP [K14N]: 3.89. In the case of FATASAAVPVSTSVPSSDLLDLQP [K14V], the protein stability index worked out at 4.05. The result for FATASAAVPVSTSIPSSDLLDLQP [K14I] reads 3.5. Consider FATASAAVPVSTSQPSSDLLDLQP [K14Q], for which the protein stability index was 4.61. As for FATASAAVPVSTSWPSSDLLDLQP [K14W], the protein stability index came to 2.03.

As to FATASAAVPVSTSYPSSDLLDLQP [K14Y], the protein stability index worked out at 3.21. In the case of FATASAAVPVSTSSPSSDLLDLQP [K14S], the protein stability index was 4.01. As to FATASAAVPVSTSTPSSDLLDLQP [K14T], the protein stability index amounted to 3.97. Next, FATASAAVPVSTSDPSSDLLDLQP [K14D]: 4.36. Next, FATASAAVPVSTSGPSSDLLDLQP [K14G]: 3.97. The result for FATASAAVPVSTSRPSSDLLDLQP [K14R] reads 3.87; that for FATASAAVPVSTSKPSSDLPDLQP [L20P], 4.36; that for FATASAAVPVSTSKPSSDLEDLQP [L20E], 4.34. FATASAAVPVSTSKPSSDLIDLQP [L20I]: the protein stability index turned out to be 3.62. The result for FATASAAVPVSTSKPSSDLYDLQP [L20Y] reads 3.74; that for FATASAAVPVSTSKPSSDLRDLQP [L20R], 4.09. The result for FATASAAVPVSTSKPSSDLHDLQP [L20H] reads 3.9; that for FATASAAVPVSTSKPSSDLWDLQP [L20W], 2.97. The result for FATASAAVPVSTSKPSSDLFDLQP [L20F] reads 3.15; that for FATASAAVPVSTSKPSSDLVDLQP [L20V], 4.12. As to FATASAAVPVSTSKPSSDLGDLQP [L20G], the protein stability index amounted to 4.12. The result for FATASAAVPVSTSKPSSDLDDLQP [L20D] reads 4.48; that for FATASAAVPVSTSKPSSDLCDLQP [L20C], 3.93; that for FATASAAVPVSTSKPSSDLSDLQP [L20S], 4.29.

As to FATASAAVPVSTSKPSSDLTDLQP [L20T], the protein stability index was determined as 3.92. The result for FATASAAVPVSTSKPSSDLQDLQP [L20Q] reads 4.14; that for FATASAAVPVSTSKPSSDLMDLQP [L20M], 3.74; that for FATASAAVPVSTSKPSSDLNDLQP [L20N], 3.61. Next, FATASAAVPVSTSKPSSDLADLQP [L20A]: 4; FATASAAVPVSTSKPSSDLKDLQP [L20K]: 4.33.

Consider FATASAAVPVSTSKPSSDLLELQP [D21E], for which the protein stability index turned out to be 4.22.

For FATASAAVPVSTSKPSSDLLHLQP [D21H], the protein stability index turned out to be 3.27. Next, FATASAAVPVSTSKPSSDLLILQP [D21I]: 2.93. The result for FATASAAVPVSTSKPSSDLLTLQP [D21T] reads 3.51; that for FATASAAVPVSTSKPSSDLLSLQP [D21S], 3.25. The result for FATASAAVPVSTSKPSSDLLPLQP [D21P] reads 3.79. Regarding FATASAAVPVSTSKPSSDLLKLQP [D21K], the protein stability index came out at 3.41.

As to FATASAAVPVSTSKPSSDLLWLQP [D21W], the protein stability index is 1.78. The result for FATASAAVPVSTSKPSSDLLNLQP [D21N] reads 3.59; that for FATASAAVPVSTSKPSSDLLALQP [D21A], 3.4; that for FATASAAVPVSTSKPSSDLLGLQP [D21G], 4.09. As to FATASAAVPVSTSKPSSDLLVLQP [D21V], the protein stability index was found to be 3.23. The result for FATASAAVPVSTSKPSSDLLFLQP [D21F] reads 2.52. The result for FATASAAVPVSTSKPSSDLLCLQP [D21C] reads 2.91; that for FATASAAVPVSTSKPSSDLLRLQP [D21R], 3.28. The result for FATASAAVPVSTSKPSSDLLLLQP [D21L] reads 2.48.

Regarding FATASAAVPVSTSKPSSDLLMLQP [D21M], the protein stability index was found to be 3.23. The result for FATASAAVPVSTSKPSSDLLYLQP [D21Y] reads 2.67. The result for FATASAAVPVSTSKPSSDLLQLQP [D21Q] reads 3.57.
